Source: doi:10.1101/2023.03.09.531943 (bioRxiv, 2023)
Substitutions are numbered along the chain they refer to.

T1: biotinylated CML14 (Arabidopsis thaliana, UniProt Q8VZ50 1-148, biotin, covalently conjugated (biotin-NHS ester), sites not stated)
T1 sequence: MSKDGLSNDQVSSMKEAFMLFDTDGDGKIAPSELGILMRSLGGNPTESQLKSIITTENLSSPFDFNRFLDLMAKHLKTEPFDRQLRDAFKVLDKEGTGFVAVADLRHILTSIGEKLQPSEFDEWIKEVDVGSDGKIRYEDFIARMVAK

T2: biotinylated CML13 (Arabidopsis thaliana, UniProt Q94AZ4 1-148, biotin, covalently conjugated (biotin-NHS ester), sites not stated)
T2 sequence: T1 sequence with S2G, N8D, E47Q, S48A, T55A, T56S, Q117E, S119N

B1: recombinant IQD14 (residues 307-418), all three putative IQ domains (domain or fragment)
chain: RREIVYRPEPTLPVQHASATKIQGAFRGYMARKSFRALKGLVRLQGVVRGYSVKRQTINAMKYMQQVVRVQSQIQSRRIKMLENQAQVEKDEAKWAASEAGNDNWDDSVLTK
B2: IQD14-IQ2 synthetic peptide, residues 344-367 (peptide)
peptide: Ac-ALKGLVRLQGVVRGYSVKRQTINA-NH2
B3: IQD14-IQ1 synthetic peptide, residues 322-346 (peptide)
peptide: Ac-QHASATKIQGAFRGYMARKSFRALK-NH2
B4: recombinant CML13 (natural protein)
chain: T1 sequence with S2G, N8D, E47Q, S48A, T55A, T56S, Q117E, S119N
B5: recombinant CML14 (natural protein)
chain: T1 sequence
B6: IQD14-IQ1+2 synthetic peptide, residues 322-367 (peptide)
peptide: not shown
modifications: N-terminal acetylation; C-terminal amidation

Key:
[1] = target: T1, biotinylated CML14; experiment: far-Western, overlay or dot blot
[2] = target: biotinylated CaM (petunia CaM81) (petunia, UniProt P62199 1-149, biotin, covalently conjugated (biotin-NHS ester), sites not stated); experiment: far-Western, overlay or dot blot
[3] = target: T2, biotinylated CML13; experiment: far-Western, overlay or dot blot
[4] = target: recombinant CaM (petunia CaM81) (petunia, UniProt P62199 1-149); experiment: ITC
[5] = target: B4; experiment: ITC
[6] = target: B5; experiment: ITC
[7] = target: B6; experiment: AUC

Binder: B1
- binding result [1]: binds
- binding result [2]: binds
- binding result [3]: binds

Binder: B2
- binding result [4]: binds

Binder: B3
- Kd [5]: 222 nM
- Kd [4]: 7 nM
- Kd [6]: 116 nM

Binder: B4
- stoichiometry N [7]: 1

Binder: B5
- stoichiometry N [7]: 1

Binder: B6
- binding result [5]: binds
- binding result [4]: binds
- binding result [6]: binds
